Legend:
Eis_Mab2 = Eis_Mab2 (Mycobacteroides abscessus, UniProt B1MKV6); test: DTNB; type: biochemical
[1] = system: NC[C@H]1O[C@H](O[C@H]2[C@H](O)[C@@H](O[C@H]3O[C@H](CO)[C@@H](O)[C@H](N)[C@H]3O)[C@H](N)C[C@@H]2N)[C@H](O)[C@@H](O)[C@@H]1O; test: purified protein; conditions: co-substrate AcCoA fixed (printed 0.5 μM), pH 8.0, 25 °C
[2] = system: NC[C@@H]1O[C@H](O[C@H]2[C@@H](O)[C@H](O[C@@H]3[C@@H](O)[C@H](N)C[C@H](N)[C@H]3O[C@H]3O[C@H](CO)[C@@H](O)[C@H](O)[C@H]3N)O[C@@H]2CO)[C@H](N)[C@@H](O)[C@@H]1O; test: purified protein; conditions: co-substrate AcCoA fixed (printed 0.5 μM), pH 8.0, 25 °C

Compound	IC50 (Eis_Mab2) [µM]	Km [1] [µM]	kcat [1] [s⁻¹]	kcat/Km [1] [M⁻¹ s⁻¹]	Km [2] [µM]	kcat [2] [s⁻¹]	kcat/Km [2] [M⁻¹ s⁻¹]
[H]/N=C(\N/C(=N/[H])NCCCCCCNC(=N)NC(=N)Nc1ccc(Cl)cc1)Nc1ccc(Cl)cc1 [chlorhexidine]	4.4 ± 0.9						
Eis_Mab2 (Mycobacteroides abscessus ATCC 19977)		125 ± 27	0.124 ± 0.007	992 ± 377	144 ± 14	2.83 ± 0.07	19700 ± 1970

— PMC5154385 (ACS infectious diseases, 2015)
